Patent publication US20240010695A1

What was measured:
Experiment in all cases: polyreactivity ELISA, antigen coated, 10 ug/mL binder
[1] = molecular target: keyhole limpet hemocyanin
[2] = molecular target: insulin
[3] = molecular target: human serum albumin (human) (UniProt P02768)

- absorbance at 450 nm normalized against the no-antigen control [1]: 38.8
- absorbance at 450 nm normalized against the no-antigen control [2]: 21.4
- absorbance at 450 nm normalized against the no-antigen control [3]: 16.6
Substance: Bococizumab (antibody)
